# Assay results taken from publication PMC3738525.
# Values joined by “and” are separate entries in the source; they are usually repeats but may differ in a detail not shown here. Equal entries are not always repeated.
# Assays:
# [1] = molecular target: endogenous cofilin (human (endogenous in platelets and HUVEC)) (UniProt P23528); test: cross-linking; intact endothelial cells (HUVEC, also transfected) in suspension, BMOE or BMH 1 mM or DMSO, 37 °C, one hour; Laemmli lysis, SDS-PAGE, immunoblot
# [2] = molecular target: endogenous cofilin (human (endogenous in platelets and HUVEC)) (UniProt P23528); test: cross-linking; human washed platelets (resting, or stimulated with thrombin, with or without Y27632) lysed in NP-40 lysis buffer with BMOE or BMH (0.2 mM; 0.1 mM BMOE in Figure 7), 20 minutes on ice; immunoblot
# [3] = molecular target: recombinant (His)6-tagged human cofilin (human) (UniProt P23528); test: cross-linking; phosphorylated (by GST-LIMK2) and unphosphorylated His-cofilin (16 μg) cross-linked with 2 and 20 mM BMOE
# [4] = molecular target: recombinant (His)6-tagged human cofilin (human) (UniProt P23528); test: cross-linking; recombinant His-cofilin 10 µM to 40 µM in PBS pH 7.2, BMOE (two fold molar excess) or DMSO, one hour at room temperature; SDS-PAGE, Coomassie blue; oligomers only at >10 µM
Substance,stoichiometry N [1],stoichiometry N [2],stoichiometry N [3],stoichiometry N [4]
endogenous cofilin (from UniProt P23528 1-166) (natural protein),4,4,–,–
recombinant (His)6-tagged human cofilin (from UniProt P23528 1-166) (natural protein),–,–,2 and 3,2 and 4 and 5
